US20260232732A1 (FUNDACI INSTITUT DE RECERCA CONTRA LA LEUC MIA JOSEP …, published 2026)
Where no end group is shown, it is not given here. The star is where a group is joined. Biotin = O=C1N[C@H]2[C@H](CS[C@H]2CCCCC(=O)*)N1

Key:
[1] = biological target: T1, biotin-peptide SMEDYVNFNF (human); assay: ELISA biotin-peptide; scFv 1.25 ug/mL; repII
T1 peptide: Biotin-SMEDYVNFNF
Procedure: (§1) The peptides were synthesized naked or with a N-terminal Biotin modification with a purity of >98%. All four scFvs were verified by ELISA that can be detected with anti-His antibodies. ELISA was performed for scFv-peptide binding validation. Briefly, naked peptides were coated (50 μg/mL) in 0.58M carbonate-bicarbonate buffer pH9.5, 100 μL/well, 4° C. O/N. Then after blocking (3% BSA-PBS, 300 μL/well 37° C. 1.5 h) and washing (PBS+Tween-20 0.05% v/v (0.05% PBST), wells were incubated with each purified scFv antibody at concentration of 1 μg/mL in PBS at 37° C. 1 h. After washing (0.05% PBST), wells were incubated with secondary antibodies (goat anti-His IgG-HRP) in PBS, 37° C., 30 min. After washing, and incubation with TMB substrate, reactions were stopped with 2M HCl and reading was quantified at OD450.
(§2) ELISA with biotin-conjugated peptides (5 μg/mL) was performed very similar to described above with minor modifications.
(§3) A full curve ELISA was performed for each positive scFv/biotin-peptide pair in order to confirm previous results. Tables 15-17 show ELISA results of the dose-dependent full curve for each positive peptide with scFv “CCR9_HUM”, “Comp-2” and “Comp-3”, respectively.

[2] = biological target: T2, biotin-peptide SSMEDYVNFN (human); assay: ELISA biotin-peptide; scFv 1.25 ug/mL; repII
T2 peptide: Biotin-SSMEDYVNFN
Procedure: as §1, §2, §3

[3] = biological target: T3, biotin-peptide TSSMEDYVNF (human); assay: ELISA biotin-peptide; scFv 1.25 ug/mL; repII
T3 peptide: Biotin-TSSMEDYVNF
Procedure: as §1, §2, §3

[4] = biological target: T4, biotin-peptide MEDYVNFNFT (human); assay: ELISA biotin-peptide; scFv 1.25 ug/mL; repII
T4 peptide: Biotin-MEDYVNFNFT
Procedure: as §1, §2, §3

[5] = biological target: T1, biotin-peptide SMEDYVNFNF; assay: ELISA biotin-peptide; scFv 0.15625 ug/mL; repI
Procedure: as §1, §2, §3

[6] = biological target: T2, biotin-peptide SSMEDYVNFN; assay: ELISA biotin-peptide; scFv 0.15625 ug/mL; repI
Procedure: as §1, §2, §3

[7] = biological target: T3, biotin-peptide TSSMEDYVNF; assay: ELISA biotin-peptide; scFv 0.15625 ug/mL; repI
Procedure: as §1, §2, §3

[8] = biological target: T4, biotin-peptide MEDYVNFNFT; assay: ELISA biotin-peptide; scFv 0.15625 ug/mL; repI
Procedure: as §1, §2, §3

[9] = biological target: T1, biotin-peptide SMEDYVNFNF; assay: ELISA biotin-peptide; scFv 0.15625 ug/mL; repII
Procedure: as §1, §2, §3

[10] = biological target: T2, biotin-peptide SSMEDYVNFN; assay: ELISA biotin-peptide; scFv 0.15625 ug/mL; repII
Procedure: as §1, §2, §3

[11] = biological target: T3, biotin-peptide TSSMEDYVNF; assay: ELISA biotin-peptide; scFv 0.15625 ug/mL; repII
Procedure: as §1, §2, §3

[12] = biological target: T4, biotin-peptide MEDYVNFNFT; assay: ELISA biotin-peptide; scFv 0.15625 ug/mL; repII
Procedure: as §1, §2, §3

[13] = biological target: T2, biotin-peptide SSMEDYVNFN; assay: ELISA biotin-peptide; scFv 2.5 ug/mL; repII
Procedure: as §1, §2, §3

[14] = biological target: T3, biotin-peptide TSSMEDYVNF; assay: ELISA biotin-peptide; scFv 2.5 ug/mL; repII
Procedure: as §1, §2, §3

[15] = biological target: T4, biotin-peptide MEDYVNFNFT; assay: ELISA biotin-peptide; scFv 2.5 ug/mL; repII
Procedure: as §1, §2, §3

B1: CCR9_HUM2 scFv (humanized anti-CCR9 scFv, SEQ ID NO: 17 with C-terminal 6xHis tag) (scFv)
scFv: QVQLVQSGAEVKKPGASVKVSCTASGYSFTDYIIYWVKQAHGQSLEWMGYIDPNNYNTRYSQKFQGKVTITVDKSSTSAYMELNSLTSDDTAVYYCARDVYWGQGTTVTVSSGGGGSGGGGSGGGGSGGGGSDVVMTQTPLSLSVTPGQPASISCRSSQSLVHSNGKTYLQWYLQKPGQSPKLLIYKVSNRFSGVPDRFSGSGSGTDFTLKISRVEAEDVGVYFCAQSTHVWTFGGGTKVEIKRAHHHHHH
OD450 [1]: 1.72 OD | OD450 [2]: 1.77 OD | OD450 [3]: 1.23 OD | OD450 [4]: 1.49 OD | OD450 [5]: 1.63 OD | OD450 [6]: 1.64 OD | OD450 [7]: 0.22 OD | OD450 [8]: 1.41 OD | OD450 [9]: 1.6 OD | OD450 [10]: 1.59 OD | OD450 [11]: 0.18 OD | OD450 [12]: 1.37 OD | OD450 [13]: 1.78 OD | OD450 [14]: 1.4 OD | OD450 [15]: 1.64 OD
